# Experiment: yeast display, Sf9 membrane polyspecificity reagent, FACS + sequencing; frameworks hold sequencing errors
# Outline: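 Genes from sorted yeast were amplified by colony PCR, read by MiSeq 2 × 250 sequencing and filtered on CDR length. These cells carried a synthetic nanobody library in Saccharomyces cerevisiae BJ5465 and were sorted by FACS into low and high (top ~1%) gates on anti-HA and streptavidin fluorescence. Polyreactivity is labelled according to the gate of origin.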
row,Sequence,polyreactivity (PSR sort gate)
1,QVQLVESGGGLVQAGGSLRLSCAASGYIFVKNAMGWYRQAPGKERELVAAISTRGGRTYYADSVKVRFTISRDNAKNTVSLQMNSLKPEDTAVYYCAAVHHTSYYDANSYGYWGQGTQVTVSS,high polyreactivity
2,QVQLVESGGGLVQAGGSLRLSCAASGRTFLYYTMGWYRQAPGKERELVAVISIEGGGTYADSVKGRFTISRDNAKNTVYLQMNSLKPEDTAVYYCAVDALSITYGYWGQGTQVNVSS,low polyreactivity
3,QVQLVESGGGLVQAGGSLRLSCAASGSTFDKYAMGWYRQAPGKERELVATISQSGASTYYADSVKGRFTISRDNAKNTVYFQMNSLKPEDTAVYYCAAAGGEQTKDYYYWGQGTQVTVSS,high polyreactivity
4,RVQLQESGGGLVQEGGSLRLSCAPSSTISRDFYMGWYRQAPGKELEFVASITYGASTNYADSVKGRVTISRDNANNTVYLQMNSLKPEDTAVYYSNAKQQPYGGTDSDYWGQGTQVSVSS,low polyreactivity
5,QVQLVESGGGLVQAGGSLRLSCAASGSTFDVYAMGWYRQATGKERELVAVINTSGTRTYYADSVKGRFTISRDNSKNTVYLQMISLKPEDTAVYYCNAGGHLEMNYWGEGTQVTVSS,low polyreactivity
6,QVQLVESGGGLVQAGGSLRLSGADSGLTFRRNAMGWYRQAPGNERELVAAIRTGGSTYYADSVKGRFTISRDNAKNTVYLQMNSLKPEDTAVYYCAARSLIGSRLVPMNFWGQGTQVTVSS,high polyreactivity
7,QVQLVESGGGLVQAGGSLRLSCAASGSTFEAYAMGWYRQAPGKERELVATITGSGGRTYADSVKGRFTITRDNAKNTVYLQMNSLKPEDTAVYYCAADCLKVAEYDYWGQGTQVTVSS,low polyreactivity
8,QVQMQESGGGTVMAGGSLRLSCAASGTIFVRLDMGSYRQAPGKEREFVATIGSGSSTYYADSVKGSFTISRDNVNKSVYLQMNSLKPEDTAVYYCAVSAAEQCRDYYWDQGTQVTVSS,low polyreactivity
9,QVHLVESGGGLVQAGGSLRLSCAASGSIFYYYGMGWYRQAPGIERELVAAISSGGRTYYADSVKGRFTISRDNAKNTVYLQMDSLKPEDTAVYYCAKPGSYAVYSGWHDYWGQGTQVTVSS,high polyreactivity
10,QVQLVESGGGLVQAGGSLRLSCAASGFTFPSYTMGWYRQAPGKERELVAAISRSDGTTYYADSVKGRFTISRDNAKNTVYLQMNSLKPEDTAVYYCNKAYKRYGYHYDYWGQGTQVTVSS,high polyreactivity
11,QVQLVESGGGLVQAGGSLRLSCAASGFTFWYYAMGWYRQAPGKERELVAGIDSGGSTYYADSVKGRFTISRDNAKNTVYFQMNSLKPEETAVYYCAARPDQGLAYSPLPWYNYWGQGTQVTVSS,low polyreactivity
12,QVQLVDTGGGLVQAGGSLRLICAASGSIFKIYAMGWYRQAPGKERELVAAISSSGGSTYYADSVKGRFTISRDNAKNTVYLQMNCLKPEDTAVYYCAAGQSWRKNAYRYDYWGQGTQVTVSS,high polyreactivity
13,QVQLQGSGGGLVQAGGSLRLSCAASGNIFDADIMGWYRQAPGKESELVASITDGGSTNYADSVKGRFTISRDNAKNTVYLQMNSLKQEDTAVYYCAAIAYPDIPTYFDYDSACFYWSQGTQVTVSS,high polyreactivity
14,QDQLVESGGGLVQEGGSLRLSCAASGSTFKNYALGWYRQAPGTERELVAASNVSRARTYYADSVKGRFTLSRDNAKNRVYFQMNSLIPEDTAFYYCAAYYSGVGFDYWGQGTHVTVSS,high polyreactivity
15,QVQLVESGGGLVQAGGSLRLSCAASGHIFFYYTMGWYRQAPGKERELVAGITIGGSTNYADSVKGRFTISRDNAKNTVYLQMNSLKPEDTAVYYCNVVNYVYIYSYWEYYYWGQGTQVTVSS,low polyreactivity
16,QVQLVESGGGLVQAGGSLRLSCAASGRIFQYYVMGWYRQAPGKERELVARITYIGGGTYYADSVKGRFTMSRDNAKNTVYLQMNSLKPEDTAVYYWYARYPWREWEDDYWGQGTQVTVSS,low polyreactivity

# Reference: the nanobody polyreactivity screen of Harvey et al. (2022)
